Results on one substance are retold here after patent publication US20170340751A1.

Bounds are passed on as bounds.

Assay [1] deals with SIINFEKL/MHC-I complex on DC2.4 cells (mouse) (UniProt P01901). The assay is described as follows: flow cytometry of DC2.4 cells incubated 13 h with OVA antigen fusion protein (SEQ ID NO: 3), PE-25.D1-16 at 0.6 ug/ml.
Assay [2] shares this target. Kind of assay: flow cytometry of DC2.4 cells loaded with SIINFEKL peptide (positive control), PE-25.D1-16 at 0.6 ug/ml.

Turning to PE-labeled monoclonal antibody 25.D1-16, the figures for the percent of cells positively stained in assay [1] and in assay [2] were 17.6% and greater than 80%, respectively.
